Data published in patent US20240201167A1 (ALBERT EINSTEIN COLLEGE OF MEDICINE, published 2024).
“And” between values parts separate entries of the source, which are not always exact repeats. Equal entries are not always repeated.

Experiments:
[1] = biological target: T1, human CTLA-4 expressed on HEK 293 cells (human, UniProt P16410 36-223); experiment: Fc fusion titrated on CTLA-4-expressing cells, flow cytometry
T1 construct: whole, on cells; also called CTLA-4-GFP
Procedure: (§1) Three days post transfection cells were counted and diluted to 1×10⁶ cells/mL in 1×PBS 0.2% BSA, pH 7.4. Premixed solutions containing a final concentration of 1 μM Fc-fusion protein and 1.5 μM Alexa 647 goat anti-mouse secondary antibody (ThermoFisher, A-21235) were incubated on ice for 30 min. Subsequently, increasing amounts of the premixed solution was added to wells of a 96-well plate and the volume adjusted to 50 μL with 1×PBS and 100 μL of diluted cells (100,000 cells total) added to the wells. Binding was performed at room temperature for 1 hour, the cells washed 2× with 1×PBS 0.2% BSA by centrifugation and subsequently analyzed by Flow Cytometry on a SONY Spectral Analyzer (SA 3800). Gated live cells were sub-gated for GFP, and GFP-positive cells sub-gated for Alexa-647.

[2] = biological target: T2, human CD28 expressed on HEK 293 cells (human, UniProt P10747 19-220); experiment: Fc fusion titrated on CD28-expressing cells, flow cytometry
T2 construct: whole, on cells; also called CD28-GFP
Procedure: as §1

[3] = biological target: T3, human p75 neurotrophin receptor, full length, expressed on HEK 293 cells (Homo sapiens, UniProt P08138 29-427); experiment: Fc fusion titrated on transfected cells, flow cytometry
T3 construct: Full-length human p75 with a cytosolic fluorescent tag (GFP); also called p75NTR; NGFR
T3 sequence: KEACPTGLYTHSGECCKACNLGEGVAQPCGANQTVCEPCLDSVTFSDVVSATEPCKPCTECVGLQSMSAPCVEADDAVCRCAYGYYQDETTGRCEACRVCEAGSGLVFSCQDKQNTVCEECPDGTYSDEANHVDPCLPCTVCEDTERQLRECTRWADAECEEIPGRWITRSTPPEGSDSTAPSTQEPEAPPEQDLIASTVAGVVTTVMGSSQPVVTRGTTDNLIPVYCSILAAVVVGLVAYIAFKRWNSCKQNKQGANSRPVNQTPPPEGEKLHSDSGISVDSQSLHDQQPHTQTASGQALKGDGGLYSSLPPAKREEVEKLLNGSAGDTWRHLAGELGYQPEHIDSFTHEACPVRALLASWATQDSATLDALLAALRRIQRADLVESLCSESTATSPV
Procedure: as §1

TNFR2 expressed on cells = biological target: T4, TNFR2 expressed on cells (human, UniProt P20333 23-461); experiment: cell-cell screen, flow cytometry
T4 construct: whole, on cells
T4 sequence (looked up): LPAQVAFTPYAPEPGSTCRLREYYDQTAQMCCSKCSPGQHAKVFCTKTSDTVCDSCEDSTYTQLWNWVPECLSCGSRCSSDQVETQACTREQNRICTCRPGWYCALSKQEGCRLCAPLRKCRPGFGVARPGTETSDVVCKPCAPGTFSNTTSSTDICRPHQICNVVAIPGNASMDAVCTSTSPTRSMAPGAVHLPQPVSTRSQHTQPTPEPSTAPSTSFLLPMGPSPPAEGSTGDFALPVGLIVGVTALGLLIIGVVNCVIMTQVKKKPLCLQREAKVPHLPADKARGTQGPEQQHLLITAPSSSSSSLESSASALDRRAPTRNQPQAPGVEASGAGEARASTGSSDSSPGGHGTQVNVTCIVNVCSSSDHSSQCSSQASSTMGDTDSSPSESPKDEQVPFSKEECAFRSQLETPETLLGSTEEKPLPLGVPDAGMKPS
Procedure: (§2) As illustrated, cells were transfected with expression cassettes expressing labeled receptors or labeled ligands, receptor-expressing cells were mixed with ligand-expressing cells and cell-to-cell binding was monitored by detecting the labels associated with the receptor and the ligand. […] Binding was detected using an anti-mIgG2A ab and flow cytometry. The binding curves were fit and the Bmax, EC50, and hill coefficient were calculated using the equation Y=Bmax*Xh/(Kdh+Xh).

FAS expressed on cells = biological target: T5, FAS expressed on cells (human, UniProt P25445 26-335); experiment: cell-cell screen, flow cytometry
T5 construct: whole, on cells
T5 sequence (looked up): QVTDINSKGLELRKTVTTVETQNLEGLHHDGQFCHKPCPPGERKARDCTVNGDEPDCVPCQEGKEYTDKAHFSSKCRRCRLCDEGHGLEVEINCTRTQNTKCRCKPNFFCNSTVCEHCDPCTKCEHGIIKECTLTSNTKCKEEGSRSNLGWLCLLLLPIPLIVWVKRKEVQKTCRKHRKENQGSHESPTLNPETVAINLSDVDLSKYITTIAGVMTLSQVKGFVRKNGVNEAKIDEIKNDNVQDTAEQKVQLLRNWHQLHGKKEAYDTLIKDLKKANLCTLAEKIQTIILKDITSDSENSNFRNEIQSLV
Procedure: as §2

[4] = biological target: T6, SorCS2 expressed on cells (UniProt Q96PQ0 51-1159, limits assumed); experiment: cell-cell binding
T6 construct: whole, on cells
T6 sequence (Q96PQ0 51-1159 limits assumed): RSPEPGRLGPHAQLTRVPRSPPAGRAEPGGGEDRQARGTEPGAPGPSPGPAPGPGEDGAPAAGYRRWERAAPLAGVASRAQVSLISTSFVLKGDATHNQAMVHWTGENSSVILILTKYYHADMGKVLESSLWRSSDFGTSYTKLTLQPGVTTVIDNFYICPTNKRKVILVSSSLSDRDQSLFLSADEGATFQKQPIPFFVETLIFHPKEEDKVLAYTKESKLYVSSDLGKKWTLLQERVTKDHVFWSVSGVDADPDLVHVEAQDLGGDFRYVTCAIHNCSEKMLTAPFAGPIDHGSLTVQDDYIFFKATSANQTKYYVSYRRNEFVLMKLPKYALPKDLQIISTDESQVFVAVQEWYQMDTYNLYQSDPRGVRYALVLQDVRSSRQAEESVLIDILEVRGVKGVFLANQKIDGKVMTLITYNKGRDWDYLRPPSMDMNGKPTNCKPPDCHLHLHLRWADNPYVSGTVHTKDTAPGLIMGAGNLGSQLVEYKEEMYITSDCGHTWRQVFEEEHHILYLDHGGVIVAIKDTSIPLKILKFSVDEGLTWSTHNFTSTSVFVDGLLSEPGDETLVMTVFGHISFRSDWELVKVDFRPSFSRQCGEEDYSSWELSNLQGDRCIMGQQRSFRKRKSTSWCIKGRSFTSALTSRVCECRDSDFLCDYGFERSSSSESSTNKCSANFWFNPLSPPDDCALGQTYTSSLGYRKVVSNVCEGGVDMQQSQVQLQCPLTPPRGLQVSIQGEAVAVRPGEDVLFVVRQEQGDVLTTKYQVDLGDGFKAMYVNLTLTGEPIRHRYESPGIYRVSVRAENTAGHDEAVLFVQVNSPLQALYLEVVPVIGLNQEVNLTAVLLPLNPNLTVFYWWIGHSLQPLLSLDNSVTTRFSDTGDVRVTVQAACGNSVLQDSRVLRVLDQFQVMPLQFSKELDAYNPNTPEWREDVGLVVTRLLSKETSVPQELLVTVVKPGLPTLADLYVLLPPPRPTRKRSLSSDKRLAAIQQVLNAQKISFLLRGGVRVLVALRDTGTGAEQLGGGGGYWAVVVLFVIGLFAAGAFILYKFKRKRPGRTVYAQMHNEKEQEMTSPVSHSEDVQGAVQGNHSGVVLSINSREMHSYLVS

[5] = biological target: T7, SorCS1 expressed on cells (UniProt Q8WY21 34-1168, limits assumed); experiment: cell-cell binding
T7 construct: whole, on cells
T7 sequence (looked up): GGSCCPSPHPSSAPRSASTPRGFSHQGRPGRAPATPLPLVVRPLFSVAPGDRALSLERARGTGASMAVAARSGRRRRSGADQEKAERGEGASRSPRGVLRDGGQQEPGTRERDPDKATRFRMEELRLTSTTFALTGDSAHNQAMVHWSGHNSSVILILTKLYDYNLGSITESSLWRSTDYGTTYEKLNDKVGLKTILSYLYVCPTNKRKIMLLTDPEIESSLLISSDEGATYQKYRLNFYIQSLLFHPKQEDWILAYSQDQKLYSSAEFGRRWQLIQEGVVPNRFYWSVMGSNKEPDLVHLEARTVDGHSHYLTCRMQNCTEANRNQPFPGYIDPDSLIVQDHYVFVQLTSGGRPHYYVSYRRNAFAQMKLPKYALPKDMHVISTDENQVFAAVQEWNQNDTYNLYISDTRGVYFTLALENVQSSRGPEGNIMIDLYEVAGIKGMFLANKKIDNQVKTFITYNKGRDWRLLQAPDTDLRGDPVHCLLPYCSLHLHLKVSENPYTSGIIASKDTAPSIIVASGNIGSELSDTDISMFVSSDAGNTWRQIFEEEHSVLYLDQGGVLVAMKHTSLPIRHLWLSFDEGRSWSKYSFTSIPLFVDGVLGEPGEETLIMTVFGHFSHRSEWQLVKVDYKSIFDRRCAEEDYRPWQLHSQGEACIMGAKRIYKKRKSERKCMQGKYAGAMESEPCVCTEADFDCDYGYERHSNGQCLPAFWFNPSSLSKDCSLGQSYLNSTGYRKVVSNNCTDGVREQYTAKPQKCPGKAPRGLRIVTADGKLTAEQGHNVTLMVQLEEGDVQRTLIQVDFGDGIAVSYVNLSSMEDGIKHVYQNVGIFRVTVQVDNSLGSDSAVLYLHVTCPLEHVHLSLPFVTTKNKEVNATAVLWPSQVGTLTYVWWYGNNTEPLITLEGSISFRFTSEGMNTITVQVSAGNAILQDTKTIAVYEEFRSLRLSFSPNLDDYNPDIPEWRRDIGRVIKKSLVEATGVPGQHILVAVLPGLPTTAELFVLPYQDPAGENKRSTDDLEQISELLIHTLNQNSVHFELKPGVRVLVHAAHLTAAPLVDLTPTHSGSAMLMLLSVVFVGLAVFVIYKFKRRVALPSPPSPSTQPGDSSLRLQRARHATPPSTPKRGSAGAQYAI

[6] = biological target: T8, Sortilin expressed on cells (UniProt Q99523 78-831, limits assumed); experiment: cell-cell binding
T8 construct: whole, on cells

[7] = biological target: T9, SorCS3 expressed on cells (UniProt Q9UPU3 134-1222, limits assumed); experiment: cell-cell binding
T9 construct: whole, on cells
T9 sequence (looked up): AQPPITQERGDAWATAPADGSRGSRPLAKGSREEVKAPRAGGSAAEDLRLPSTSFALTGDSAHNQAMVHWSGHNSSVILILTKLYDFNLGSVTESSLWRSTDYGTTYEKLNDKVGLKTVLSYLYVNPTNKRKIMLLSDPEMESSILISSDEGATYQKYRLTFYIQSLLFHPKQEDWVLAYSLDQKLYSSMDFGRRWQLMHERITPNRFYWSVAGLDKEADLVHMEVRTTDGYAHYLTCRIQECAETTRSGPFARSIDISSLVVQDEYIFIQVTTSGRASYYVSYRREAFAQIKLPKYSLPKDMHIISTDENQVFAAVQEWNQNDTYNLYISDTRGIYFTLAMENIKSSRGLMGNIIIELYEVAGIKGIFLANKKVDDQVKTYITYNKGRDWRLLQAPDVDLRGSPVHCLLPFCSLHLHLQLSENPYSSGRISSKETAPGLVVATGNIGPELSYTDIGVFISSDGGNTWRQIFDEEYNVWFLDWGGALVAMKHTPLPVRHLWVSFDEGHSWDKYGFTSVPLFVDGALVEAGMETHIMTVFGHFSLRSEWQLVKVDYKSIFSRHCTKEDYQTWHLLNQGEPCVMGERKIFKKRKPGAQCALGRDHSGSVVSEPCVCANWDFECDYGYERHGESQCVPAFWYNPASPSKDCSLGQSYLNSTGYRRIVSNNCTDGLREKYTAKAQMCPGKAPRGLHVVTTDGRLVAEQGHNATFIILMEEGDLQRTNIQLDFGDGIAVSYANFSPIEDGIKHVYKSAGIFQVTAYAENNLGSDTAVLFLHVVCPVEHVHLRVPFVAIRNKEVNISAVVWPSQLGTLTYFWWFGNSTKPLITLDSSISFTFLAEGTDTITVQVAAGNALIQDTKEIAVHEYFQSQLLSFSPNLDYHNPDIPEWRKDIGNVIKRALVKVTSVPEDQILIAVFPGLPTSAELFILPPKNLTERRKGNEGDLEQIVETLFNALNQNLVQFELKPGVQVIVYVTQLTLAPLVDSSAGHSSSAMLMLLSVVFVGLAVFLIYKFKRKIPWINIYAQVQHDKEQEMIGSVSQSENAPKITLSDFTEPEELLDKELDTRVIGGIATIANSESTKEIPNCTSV

[8] = biological target: T10, rat p75NTR expressed on cells (rat, UniProt P07174 30-425); experiment: cell-cell binding, flow cytometry
T10 construct: whole, on cells; also called rat p75NTR-GFP; rodent p75NTR
T10 sequence (looked up): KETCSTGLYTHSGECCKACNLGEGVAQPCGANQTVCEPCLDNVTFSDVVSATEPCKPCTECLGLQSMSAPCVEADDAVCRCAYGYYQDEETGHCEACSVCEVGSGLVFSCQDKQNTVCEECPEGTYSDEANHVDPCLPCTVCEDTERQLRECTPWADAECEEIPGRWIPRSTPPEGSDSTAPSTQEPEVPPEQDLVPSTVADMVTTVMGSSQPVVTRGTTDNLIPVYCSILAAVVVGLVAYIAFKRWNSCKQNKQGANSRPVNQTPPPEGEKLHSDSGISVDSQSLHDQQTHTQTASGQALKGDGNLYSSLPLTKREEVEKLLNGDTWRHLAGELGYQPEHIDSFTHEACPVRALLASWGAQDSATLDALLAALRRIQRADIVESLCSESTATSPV

mouse p75NTR = biological target: T11, mouse p75NTR (mouse, UniProt Q9Z0W1 32-427); experiment: cell-cell binding, flow cytometry
T11 construct: whole, on cells; also called mouse p75NTR-GFP; murine p75
T11 sequence (looked up): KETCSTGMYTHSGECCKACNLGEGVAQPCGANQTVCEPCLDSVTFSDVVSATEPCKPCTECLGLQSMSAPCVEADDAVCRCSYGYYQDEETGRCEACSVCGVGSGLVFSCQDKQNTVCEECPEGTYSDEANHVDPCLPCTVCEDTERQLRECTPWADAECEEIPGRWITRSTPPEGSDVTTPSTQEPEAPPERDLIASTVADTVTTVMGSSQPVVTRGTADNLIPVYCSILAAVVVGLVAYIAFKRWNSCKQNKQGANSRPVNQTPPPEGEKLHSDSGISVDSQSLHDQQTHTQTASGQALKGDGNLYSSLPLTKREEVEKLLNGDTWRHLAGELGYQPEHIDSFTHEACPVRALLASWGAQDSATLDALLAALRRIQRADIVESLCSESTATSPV

[9] = biological target: T3, human p75 neurotrophin receptor, full …; experiment: cell-cell binding, flow cytometry

T1 sequence (P16410 36-223): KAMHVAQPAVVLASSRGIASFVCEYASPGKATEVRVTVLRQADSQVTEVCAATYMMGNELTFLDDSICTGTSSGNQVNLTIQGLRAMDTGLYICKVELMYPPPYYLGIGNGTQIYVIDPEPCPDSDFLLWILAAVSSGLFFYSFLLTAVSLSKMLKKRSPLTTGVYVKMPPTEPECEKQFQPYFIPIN

B1: B7-1N82E-Fc (Fc fusion)
chain: VIHVTYEVKEVATLSCGHNVSVEELAQTRIYWQKEKKMVLTMMSGDMEIWPEYKNRTIFDITNNLSIVILALRPSDEGTYECVVLKYEKDAFKREHLAEVTLSVKADFPTPSISDFEIPTSNIRRIICSTSGGFPEPHLSWLENGEELNAINTTVSQDPETELYAVSSKLDFNMTTNHSFMCLIKYGHLRVNQTFNWNT
notes: also called recombinant mutant B7-1 N82E; B7-1 N82E Fc fusion protein; not shown: C-terminal deca-His-tagged Fc domain (mIgG2a-His10 or hIgG1-His10)
EC50 [1]: ~9 nM and ~10 nM
EC50 [2]: ~9 nM and ~10 nM
binding result [3]: no binding

B2: human B7-1 (CD80), full length, expressed on HEK 293 cells (ligand)
chain: VIHVTYEVKEVATLSCGHNVSVEELAQTRIYWQKEKKMVLTMMSGDMNIWPEYKNRTIFDITNNLSIVILALRPSDEGTYECVVLKYEKDAFKREHLAEVTLSVKADFPTPSISDFEIPTSNIRRIICSTSGGFPEPHLSWLENGEELNAINTTVSQDPETELYAVSSKLDFNMTTNHSFMCLIKYGHLRVNQTFNWNTTKQEHFPDNLLPSWAITLISVNGIFVICCLTYCFAPRCRERRRNERL
notes: also called hB7-1; B7-1-mCherry
binding result (TNFR2 expressed on cells): no binding
binding result (FAS expressed on cells): no binding
binding result [4]: no binding
binding result [5]: no binding
binding result [6]: no binding
binding result [7]: no binding

B3: mouse B7-1 expressed on cells (ligand)
chain: VDEQLSKSVKDKVLLPCRYNSPHEDESEDRIYWQKHDKVVLSVIAGKLKVWPEYKNRTLYDNTTYSLIILGLVLSDRGTYSCVVQKKERGTYEVKHLALVKLSIKADFSTPNITESGNPSADTKRITCFASGGFPKPRFSWLENGRELPGINTTISQDPESELYTISSQLDFNTTRNHTIKCLIKYGDAHVSEDFTWEKPPEDPPDSKNTLVLFGAGFGAVITVVVIVVIIKCFCKHRSCFRRNEASRETNNSLTFGPEEALAEQTVFL
notes: Cytosolic mCherry tag; also called mouse B7-1-mCherry; rodent B7-1
binding result [8]: no binding
binding result (mouse p75NTR): no binding
binding result [9]: no binding
